Source: article PMC7439691, “SRSF1 regulates exosome microRNA enrichment in human cancer cells”

Tests used:
GST-SRSF1 [1] = target: T1, GST-SRSF1 (human, UniProt Q07955 1-248); assay: competition; EMSA vs IRD-800 miR-1246; did not alter binding; EMSA: 40 mM Tris pH 8.0, 30 mM KCl, 1 mM MgCl2, 0.001% NP40, 1 mM DTT, 5% glycerol, room temperature 40 min, 4% native gel; conditions: protein: recombinant; tags: N-terminal GST (pGEX6P); no self-complementarity
GST-SRSF1 [2] = target: T1, GST-SRSF1; assay: competition; EMSA vs IRD-800 miR-1246; concentration-dependent; dissociation constant only in Fig. 6f; EMSA: 40 mM Tris pH 8.0, 30 mM KCl, 1 mM MgCl2, 0.001% NP40, 1 mM DTT, 5% glycerol, room temperature 40 min, 4% native gel; conditions: protein: recombinant; tags: N-terminal GST (pGEX6P); no self-complementarity

T1 sequence (Q07955 whole entry): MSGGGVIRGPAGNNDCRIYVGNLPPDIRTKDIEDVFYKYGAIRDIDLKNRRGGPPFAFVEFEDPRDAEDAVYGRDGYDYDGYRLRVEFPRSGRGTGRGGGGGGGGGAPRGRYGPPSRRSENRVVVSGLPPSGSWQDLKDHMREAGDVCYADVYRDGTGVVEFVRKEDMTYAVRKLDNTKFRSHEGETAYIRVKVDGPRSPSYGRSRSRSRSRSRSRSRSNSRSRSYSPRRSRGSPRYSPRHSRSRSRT

UUGGACUAGGACUAGGAU (ssRNA) [Decoy mimic 1 (D1)]
binding result (GST-SRSF1 [1]): no binding

AGGAAGGAAGGAAGGA (ssRNA) [Decoy mimic 2 (D2)]
binding result (GST-SRSF1 [2]): binds
